Values belong to the binder of their own block, whether it stands above or below them. Bridge positions count the residues as written; N and C are the ends. Square brackets hold non-standard residues; d marks the D form. Ends that are not written are not given here. GdDOTAGA = Gd(III)-DOTAGA chelate, amide-linked; Bip = N[C@@H](Cc1ccc(-c2ccccc2)cc1)C(=O)O
Assays:
Test in all cases: dried collagen film in microtiter plate; unbound compound by ICP-MS (Gd); fit to 1 binding site
[1] = biological target: T1, Canine collagen (Native canine Collagen Type I and III protein, YO protein AB, cat#739) (canine, UniProt Q9XSJ7 158-1214; O46392 80-1119)
T1 construct: The bought preparation is a mixture of native canine collagen types I and III, not one defined trimer; It was gelled and dried as a film in microtiter wells; also called dog collagen
T1 sequence (Q9XSJ7 158-1214, chain 1 of 2): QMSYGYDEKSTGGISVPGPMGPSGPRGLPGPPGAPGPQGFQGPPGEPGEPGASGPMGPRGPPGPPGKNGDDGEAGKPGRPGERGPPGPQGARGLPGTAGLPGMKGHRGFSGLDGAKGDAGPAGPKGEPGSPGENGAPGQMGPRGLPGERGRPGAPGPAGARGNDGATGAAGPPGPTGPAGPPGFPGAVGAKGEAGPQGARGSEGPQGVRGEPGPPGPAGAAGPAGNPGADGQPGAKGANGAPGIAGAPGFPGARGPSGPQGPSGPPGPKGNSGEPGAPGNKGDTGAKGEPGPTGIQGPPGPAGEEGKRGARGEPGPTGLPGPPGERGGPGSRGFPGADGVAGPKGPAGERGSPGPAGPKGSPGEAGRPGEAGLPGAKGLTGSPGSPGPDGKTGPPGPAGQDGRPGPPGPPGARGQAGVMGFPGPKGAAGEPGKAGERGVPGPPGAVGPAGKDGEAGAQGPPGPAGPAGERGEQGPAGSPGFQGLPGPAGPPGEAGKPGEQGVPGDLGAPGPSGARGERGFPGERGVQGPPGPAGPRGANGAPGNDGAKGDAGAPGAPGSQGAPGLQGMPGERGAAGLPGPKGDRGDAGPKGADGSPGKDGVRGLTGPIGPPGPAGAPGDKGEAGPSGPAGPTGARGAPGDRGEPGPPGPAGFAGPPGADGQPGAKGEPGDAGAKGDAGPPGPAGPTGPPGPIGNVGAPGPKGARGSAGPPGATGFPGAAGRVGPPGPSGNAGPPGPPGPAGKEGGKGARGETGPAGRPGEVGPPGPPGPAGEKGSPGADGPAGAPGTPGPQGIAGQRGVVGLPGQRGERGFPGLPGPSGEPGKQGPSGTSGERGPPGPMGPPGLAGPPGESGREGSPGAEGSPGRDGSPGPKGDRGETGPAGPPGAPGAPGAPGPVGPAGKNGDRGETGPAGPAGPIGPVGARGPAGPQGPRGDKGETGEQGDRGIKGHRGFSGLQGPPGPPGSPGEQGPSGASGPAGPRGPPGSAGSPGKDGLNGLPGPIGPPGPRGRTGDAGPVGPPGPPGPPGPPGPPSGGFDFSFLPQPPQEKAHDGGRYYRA
T1 sequence (O46392 80-1119, chain 2 of 2): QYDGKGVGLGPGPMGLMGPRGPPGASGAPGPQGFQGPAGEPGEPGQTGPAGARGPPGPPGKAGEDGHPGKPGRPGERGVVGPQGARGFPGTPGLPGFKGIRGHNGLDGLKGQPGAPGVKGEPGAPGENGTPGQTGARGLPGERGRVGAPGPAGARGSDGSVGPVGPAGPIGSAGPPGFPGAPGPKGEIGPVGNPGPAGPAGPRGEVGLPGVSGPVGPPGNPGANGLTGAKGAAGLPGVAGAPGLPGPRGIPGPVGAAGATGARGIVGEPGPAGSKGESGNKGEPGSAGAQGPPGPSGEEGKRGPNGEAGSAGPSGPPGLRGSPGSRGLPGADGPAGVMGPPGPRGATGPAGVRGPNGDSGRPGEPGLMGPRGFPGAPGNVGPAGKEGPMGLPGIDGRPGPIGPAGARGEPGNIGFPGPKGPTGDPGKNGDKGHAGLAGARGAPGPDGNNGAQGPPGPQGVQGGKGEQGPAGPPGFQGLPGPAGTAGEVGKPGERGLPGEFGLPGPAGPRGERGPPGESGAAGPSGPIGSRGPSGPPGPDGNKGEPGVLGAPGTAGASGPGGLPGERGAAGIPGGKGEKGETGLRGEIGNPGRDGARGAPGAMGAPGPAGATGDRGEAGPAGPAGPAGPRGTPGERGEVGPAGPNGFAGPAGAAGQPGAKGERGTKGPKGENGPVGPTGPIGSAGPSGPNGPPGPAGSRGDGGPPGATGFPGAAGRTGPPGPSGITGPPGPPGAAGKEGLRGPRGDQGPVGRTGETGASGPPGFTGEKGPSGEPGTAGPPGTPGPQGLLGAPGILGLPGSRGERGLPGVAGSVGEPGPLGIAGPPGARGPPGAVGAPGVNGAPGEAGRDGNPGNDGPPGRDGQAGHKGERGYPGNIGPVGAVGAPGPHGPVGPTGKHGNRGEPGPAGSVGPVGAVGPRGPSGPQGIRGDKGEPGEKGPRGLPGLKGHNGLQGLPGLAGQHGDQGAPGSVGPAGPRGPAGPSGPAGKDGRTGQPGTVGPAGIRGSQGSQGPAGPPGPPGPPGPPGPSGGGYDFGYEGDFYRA
Method: (§1) Ice-cold 1×PBS pH 10.8 is added to the collagen solution for a final collagen concentration of 10 μM, pH 7.4. Collagen solutions are gelled and dried down in the wells of a 96 well microtiter plate (Corning Polystyrene Flat Bottom, cat#3641). 70 μl of 10 μM collagen is aliquoted into each well in every other lane in the plate (48 wells) and the plate is incubated at 37° C. for 18 hours to form a gel and evaporate to dryness. Ungelled collagen is removed by washing the collagen films with 200 μl 1×PBS pH 7.4 (four times, 15 min per wash). The thin collagen fibril film remains, coating the bottom of each well. After washing by PBS the plate is again dried at 37° C. for 2 hours and is stored at −20° C. The final well content of gelled collagen is measured by determination of hydroxyproline and is around 180 μg/ml.
(§2) a serial dilution of 0.2 μM-30 μM of the peptide chelate is prepared in PBS, pH 7.4 (˜300 μL of solution for each concentration). 90 μl of each concentration is also reserved in a HPLC glass vial as a sample to measure the total concentration. 140 μL of each dilution of peptide chelate is added to wells containing and non-containing collagen (control for nonspecific plastic binging). The plate is then incubated on a shaker table (300 rpm) for 2 hours at room temperature to allow the compound to bind. After 2 hours the supernatant from each well (with or without collagen) is transferred to an HPLC glass vial. The concentration of free, unbound compound in the sample supernatants and the concentration of compound in the reserved (total) sample are determined by ICP-MS (Agilent 7500, gadolinium concentration). The concentration of compound bound to collagen is determined as [bound]=[total]−[unbound].
(§3) The binding of compounds to human, rat and dog collagen (5 μM) was measured over the concentration range 0.2-5 μM of Comp ID Nos.: 1-4. The binding data was fit to a model of 1 binding site.

[2] = biological target: T2, rat collagen (acid soluble, type I, rat tail, Millipore Inc, cat#08-115) (rat, UniProt P02454 152-1207; P02466 86-1125)
T2 construct: In the assay the collagen was gelled and dried as a fibril film in microtiter wells; also called rat collagen type I
T2 sequence (P02454 152-1207 limits assumed, chain 1 of 2): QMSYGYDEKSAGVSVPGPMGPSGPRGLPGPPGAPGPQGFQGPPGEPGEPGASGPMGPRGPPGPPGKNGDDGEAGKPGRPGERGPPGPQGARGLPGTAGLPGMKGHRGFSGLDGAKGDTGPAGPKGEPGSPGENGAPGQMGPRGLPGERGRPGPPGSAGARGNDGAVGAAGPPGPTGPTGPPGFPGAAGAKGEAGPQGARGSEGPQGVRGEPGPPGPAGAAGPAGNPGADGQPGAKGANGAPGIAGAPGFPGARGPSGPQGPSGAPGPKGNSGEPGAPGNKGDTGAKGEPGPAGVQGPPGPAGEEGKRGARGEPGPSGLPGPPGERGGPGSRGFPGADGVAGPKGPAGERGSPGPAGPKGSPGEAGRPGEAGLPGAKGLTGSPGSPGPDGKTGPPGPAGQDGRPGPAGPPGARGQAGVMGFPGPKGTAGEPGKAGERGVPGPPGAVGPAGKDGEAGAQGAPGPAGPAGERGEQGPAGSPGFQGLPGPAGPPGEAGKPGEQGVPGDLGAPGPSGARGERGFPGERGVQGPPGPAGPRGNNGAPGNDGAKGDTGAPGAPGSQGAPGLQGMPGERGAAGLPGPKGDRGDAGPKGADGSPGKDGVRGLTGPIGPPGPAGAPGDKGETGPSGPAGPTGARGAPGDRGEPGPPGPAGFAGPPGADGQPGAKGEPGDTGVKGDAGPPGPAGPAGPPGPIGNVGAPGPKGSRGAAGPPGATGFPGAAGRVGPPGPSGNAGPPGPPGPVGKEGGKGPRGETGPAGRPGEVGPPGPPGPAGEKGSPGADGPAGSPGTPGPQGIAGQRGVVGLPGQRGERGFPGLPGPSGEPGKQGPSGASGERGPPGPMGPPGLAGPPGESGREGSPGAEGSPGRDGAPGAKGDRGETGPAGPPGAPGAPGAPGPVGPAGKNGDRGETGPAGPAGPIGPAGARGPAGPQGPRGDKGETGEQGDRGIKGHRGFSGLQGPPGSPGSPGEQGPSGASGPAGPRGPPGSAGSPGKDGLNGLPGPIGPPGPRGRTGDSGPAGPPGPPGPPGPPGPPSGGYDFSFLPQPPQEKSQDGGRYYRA
T2 sequence (P02466 86-1125 limits assumed, chain 2 of 2): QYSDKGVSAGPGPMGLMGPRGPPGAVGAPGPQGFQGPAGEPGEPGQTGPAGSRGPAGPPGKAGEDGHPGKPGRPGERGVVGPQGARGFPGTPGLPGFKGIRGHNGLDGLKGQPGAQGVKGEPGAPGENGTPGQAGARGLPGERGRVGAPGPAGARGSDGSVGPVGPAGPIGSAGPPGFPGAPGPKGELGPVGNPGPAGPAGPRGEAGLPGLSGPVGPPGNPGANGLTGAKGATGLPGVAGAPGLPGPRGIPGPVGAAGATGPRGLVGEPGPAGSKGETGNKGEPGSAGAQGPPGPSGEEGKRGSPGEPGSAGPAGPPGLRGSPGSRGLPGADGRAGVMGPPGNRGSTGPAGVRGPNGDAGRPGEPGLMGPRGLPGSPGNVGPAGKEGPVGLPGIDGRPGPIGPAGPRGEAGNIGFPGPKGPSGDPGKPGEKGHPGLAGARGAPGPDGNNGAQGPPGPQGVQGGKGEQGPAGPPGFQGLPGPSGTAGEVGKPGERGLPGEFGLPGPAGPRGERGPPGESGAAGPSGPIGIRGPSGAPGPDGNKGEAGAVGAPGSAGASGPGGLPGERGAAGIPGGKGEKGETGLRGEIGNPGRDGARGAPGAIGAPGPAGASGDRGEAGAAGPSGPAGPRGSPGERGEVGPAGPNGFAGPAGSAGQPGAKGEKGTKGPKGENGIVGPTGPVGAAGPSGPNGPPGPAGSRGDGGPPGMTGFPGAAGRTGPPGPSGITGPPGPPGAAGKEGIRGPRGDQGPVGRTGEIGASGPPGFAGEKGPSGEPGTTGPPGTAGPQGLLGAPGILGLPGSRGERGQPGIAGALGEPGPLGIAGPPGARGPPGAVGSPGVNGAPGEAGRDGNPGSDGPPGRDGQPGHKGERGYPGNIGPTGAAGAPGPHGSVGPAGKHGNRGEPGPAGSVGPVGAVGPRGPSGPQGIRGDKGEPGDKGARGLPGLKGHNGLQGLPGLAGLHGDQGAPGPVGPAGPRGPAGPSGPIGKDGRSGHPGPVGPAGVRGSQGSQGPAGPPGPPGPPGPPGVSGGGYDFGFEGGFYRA
Method: as §1, §2, §3

[3] = biological target: T3, human type I collagen (VitroCol solution, Advanced Biomatrix, cat#5007-A) (human, UniProt P02452 179-1192; P08123 91-1104, limits assumed)
T3 construct: In the assay the collagen was gelled and dried as a fibril film in microtiter wells; also called human collagen; Human Collagen Type I
Method: as §1, §2, §3

Kd [1]: 2 µM
Kd [2]: 4.6 µM
Kd [3]: 9.6 µM
B1: Compound ID No. 4 (peptide)
peptide: KWHCYTKFPHHYCVY[Bip]-NH2
modifications: disulfide 4-13; not fully specified (residues 1, 7, N-terminus); printed as K-W-H-C-Y-T-K-F-P-H-H-Y-C-V-Y-Bip; also: GdDOTAGA on N-terminal amine or lysine epsilon amino groups
notes: Tested as the Gd(III)-DOTAGA chelate conjugate of the cyclic peptide; also called CMPD ID 4

Kd [3]: 29.8 µM
B4: Compound ID No. 3 (peptide)
peptide: GdDOTAGA-K(GdDOTAGA)YWHCTTK(GdDOTAGA)FPHHYCLY[Bip]-NH2
modifications: disulfide 5-14
notes: Tested as the Gd(III)-DOTAGA chelate conjugate of the cyclic peptide; also called CMPD ID 3

The next lines start with the binder.

B2: Compound ID No. 1 (peptide)
peptide: GKWHCTTKFPHHYCLY
modifications: Bip (L-4,4'-biphenylalanine) at position 17; C-terminal amide (NH2); cyclized through Cysteine-Cysteine disulfide bond (Cys5-Cys14); GdDOTAGA coupled by amide bonds to the primary amines (N-terminal amine and lysine epsilon amino groups)
notes: Tested as the Gd(III)-DOTAGA chelate conjugate of the cyclic peptide; also called CMPD ID 1; Comp ID No. 1
Kd [1]: 4.4 µM
Kd [2]: 21.1 µM
Kd [3]: 3.8 µM

B3: Compound ID No. 2 (peptide)
peptide: GdDOTAGA-K(GdDOTAGA)WHCTTK(GdDOTAGA)FPHHYCLY[Bip]-NH2
modifications: disulfide 4-13
notes: Tested as the Gd(III)-DOTAGA chelate conjugate of the cyclic peptide; also called CMPD ID 2
Kd [1]: 4.9 µM
Kd [2]: 20.6 µM
Kd [3]: 4.9 µM

From patent US20160375155A1 (COLLAGEN MEDICAL, published 2016)
